Assay results reported in publication PMC5757783.

Biological target: histone H2A-N38C (Xenopus laevis)
Experiment: cross-linking

stoichiometry N: 2
Substance: histone H2A-N38C (natural protein)
